Experimental data: IntAct's records for PubMed 23386062
One block for each substance: values may come before it.

How the values were obtained:
[1] = molecular target: nisch_human NISCH (UniProt Q9Y2I1)
[2] = molecular target: nisch_human NISCH (UniProt Q9Y2I1); remark: listed apart in the source
[3] = molecular target: nisch_human NISCH (UniProt Q9Y2I1); remark: listed apart in the source
[4] = molecular target: nisch_human NISCH (UniProt Q9Y2I1); remark: listed apart in the source

Chain of UniProt Q9Y2I1 (Q9Y2I1 whole entry): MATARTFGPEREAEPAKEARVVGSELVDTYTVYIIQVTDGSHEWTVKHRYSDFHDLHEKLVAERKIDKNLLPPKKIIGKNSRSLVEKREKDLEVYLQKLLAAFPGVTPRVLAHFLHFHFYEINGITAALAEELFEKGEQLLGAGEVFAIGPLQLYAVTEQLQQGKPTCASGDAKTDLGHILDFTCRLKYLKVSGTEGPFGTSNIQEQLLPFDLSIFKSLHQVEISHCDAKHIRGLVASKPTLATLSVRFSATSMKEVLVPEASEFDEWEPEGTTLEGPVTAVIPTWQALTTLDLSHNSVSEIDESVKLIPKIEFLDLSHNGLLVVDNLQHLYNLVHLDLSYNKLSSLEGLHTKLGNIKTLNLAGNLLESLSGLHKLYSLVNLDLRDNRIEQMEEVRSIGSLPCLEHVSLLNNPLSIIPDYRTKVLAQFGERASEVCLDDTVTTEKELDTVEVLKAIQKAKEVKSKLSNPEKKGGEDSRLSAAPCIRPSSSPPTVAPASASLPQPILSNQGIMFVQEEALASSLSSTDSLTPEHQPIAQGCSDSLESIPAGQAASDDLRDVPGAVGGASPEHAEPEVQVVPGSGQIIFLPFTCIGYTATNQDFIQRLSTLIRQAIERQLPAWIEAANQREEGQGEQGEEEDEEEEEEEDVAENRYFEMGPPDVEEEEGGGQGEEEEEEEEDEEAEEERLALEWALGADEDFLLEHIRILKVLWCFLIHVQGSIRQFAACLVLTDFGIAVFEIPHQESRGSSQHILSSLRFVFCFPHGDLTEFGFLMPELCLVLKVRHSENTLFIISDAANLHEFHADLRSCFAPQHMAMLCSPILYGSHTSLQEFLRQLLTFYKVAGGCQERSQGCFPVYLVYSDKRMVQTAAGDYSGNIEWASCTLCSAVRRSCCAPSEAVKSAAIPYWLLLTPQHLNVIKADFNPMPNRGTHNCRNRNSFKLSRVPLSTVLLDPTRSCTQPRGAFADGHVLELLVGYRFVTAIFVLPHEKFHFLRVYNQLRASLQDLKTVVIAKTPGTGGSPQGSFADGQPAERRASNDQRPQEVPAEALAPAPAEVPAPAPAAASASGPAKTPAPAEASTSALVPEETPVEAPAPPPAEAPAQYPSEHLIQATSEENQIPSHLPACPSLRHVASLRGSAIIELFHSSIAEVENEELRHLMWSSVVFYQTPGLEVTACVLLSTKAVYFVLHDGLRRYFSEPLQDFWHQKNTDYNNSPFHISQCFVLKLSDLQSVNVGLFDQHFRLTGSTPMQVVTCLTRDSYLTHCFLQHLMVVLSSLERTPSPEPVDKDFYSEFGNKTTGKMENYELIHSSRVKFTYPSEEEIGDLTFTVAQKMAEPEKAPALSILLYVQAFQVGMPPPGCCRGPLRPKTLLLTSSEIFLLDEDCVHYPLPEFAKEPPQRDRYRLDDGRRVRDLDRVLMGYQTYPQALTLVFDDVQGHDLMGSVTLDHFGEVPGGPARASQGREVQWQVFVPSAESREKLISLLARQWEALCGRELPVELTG

- effect of a mutation on the interaction [1]: increasing interaction
Substance: Ras-related protein Rab-14 (Rattus norvegicus (Rat)) (from UniProt P61107) Q70L

- effect of a mutation on the interaction [2]: disrupting interaction
- effect of a mutation on the interaction [3]: decreasing interaction
Substance: Ras-related protein Rab-14 (Rattus norvegicus (Rat)) (from UniProt P61107) S25N

- effect of a mutation on the interaction [4]: decreasing interaction
Substance: Ras-related protein Rab-14 (Rattus norvegicus (Rat)) (from UniProt P61107) N124I
